Source: article PMC11256756

How the values were obtained:
Test in all cases: potentiometry
Conditions in all cases: 298 K, stated as 40 mM (SDS), 4 mM HClO4, no buffer
[1] = target: Nterm1 (position 1, -----FFHHIF)
Lys14 (position 14, …) = target: Lys14 (position 14, …)
[2] = target: Nterm1 (position 1, -----FIHHIF)
[3] = 1:1 Zn(II) complex (Zn bound by three His imidazoles; N-terminus and Lys not coordinated)

FFHHIFRGIVHVGKTIHRLVTG [Piscidin 1 (Morone saxatilis x Morone chrysops (hybrid striped bass))] showed a pKa [1, 3] of 7.88, a pKa ([1]; metal-free peptide) of 8.36 and a pKa (Lys14 (position 14, …); 1:1 Cu(II) complex, ATCUN 4N square-planar binding (N-terminal amine, two amides, His3 imidazole)) of 9.82. It also gave a pKa (Lys14 (position 14, …); [3]) of 10.09 and a pKa (Lys14 (position 14, …); metal-free peptide) of 10.02.

FFHHIFRGIVHVGKTIHKLVTG [Piscidin 2 (Morone saxatilis x Morone chrysops (hybrid striped bass))] showed a pKa [1, 3] of 8.04 and a pKa ([1]; metal-free peptide) of 8.82.

FIHHIFRGIVHAGRSIGRFLTG [Piscidin 3 (Morone saxatilis x Morone chrysops (hybrid striped bass))] was tested, and the pKa [2, 3] was 7.29 and the pKa ([2]; metal-free peptide) was 8.26.
